Positions count from the first letter of the chain named.
B1: 75110_01D24A (antibody, V domains shown)
VH: QVQLQQWGAGLLKPSETLSLTCAVYGGSFSGYYWSWIRQPPGKGLEWIGEINHSGSTNYNPSLKSRVTISVDTSENQFSLKLNSVTAADTAVYYCARLVNWFDPWGQGTLVTVSS
VL: EIQMTQSPSSVSASVGDRVTITCRASQDISNWLAWYQQKPGKAPNLLIFAASSLQTGVPSRFSGSGSGTDFTLTISSLQPDDFATYYCQQANSFPYSFGQGTNLGIK
notes: Tested as antibody purified from AlivaMab Mouse hybridoma supernatant (captured by anti-mouse IgG Fc)
B2: 75110_03L12A (antibody, V domains shown)
VH: B1 VH with K81T, N83I, A96V, V99I
VL: B1 VL with E1D, N45K, T56S, S97T
notes: as for B1
B3: 75110_01A06A (antibody, V domains shown)
VH: EVQLVESGGGLVQPGGSLRLSCAASGFTFSSYWMSWVRQAPGKGLEWVANINEDGNEKYYVDSVKGRLTISRDNAKNSLYLQMNSLRAEDTAVYFCAREGGQWLSLDYWGQGALVTVSS
VL: DIQMTQSPSSVSASVGDRVSITCRASQGISSWLAWYQQKPGKAPKILIYGASSLQSGVPSRFSGSGSGTDFTLTISSLQPEDFATYYCQQANSFPWTFGQGTKVEIK
notes: as for B1
B4: 75110_01C18A (antibody, V domains shown)
VH: EVQLVESGGGLIQPGGSLRLSCAASGFTVSSNYMNWVRQAPGKGLEWVSVIYAGDNTYSADSVKGRFTISRDNSNNTLCLQMNSLRAEDTAVYYCAREGGTTGAFDIWGQGTMVTVSS
VL: B3 VL with S20T, S30N, I46L, G50A, A91G, W96Y, V104L
notes: as for B1
B5: 75110_01J09A (antibody, V domains shown)
VH: B3 VH with A23V, I51T, N52K, N56S, E57D, L68F, S71C, F95Y, S105A, A113T
VL: B3 VL with S20T, T22N, K45N, I46L, Y49F, S67F, T72S, S76T, S77T, Y87H
notes: as for B1
B6: 75110_01H18A (antibody, V domains shown)
VH: B1 VH with P40S, H53Q, E75K, N83S, L98V, V99I, P104S
VL: B3 VL with S20T, I46L, G50A, L54F, P80T, W96Y, K103R, V104L
notes: as for B1
B7: 75110_04K10A (antibody, V domains shown)
VH: B3 VH with E53Q, N56S, L68F, M83L, V93M, F95Y, A113T
VL: B3 VL with S20T, I46V, A51V, L54F, T72I
notes: as for B1
B8: 75110_03D16A (antibody, V domains shown)
VH: B3 VH with E53Q, N56G, L68F, F95Y, A97V, S105A, A113T
VL: B3 VL with S20T, A34T, I46F, G50A, S67F
notes: as for B1
B9: 75110_03C01A (antibody, V domains shown)
VH: B1 VH with P40S, H53Q, E75K, N76D, N83S, L98V, V99I, P104S, T109S
VL: B3 VL with S20T, K42N, I46L, G50D, L54F, P80T, W96Y, V104L
notes: as for B1
B10: 75110_02N15A (antibody, V domains shown)
VH: B3 VH with L68F, Y80F, S105A, Y108H
VL: B3 VL with S20T, I46F, Y49S, I106F
notes: as for B1
B11: 75110_02E22A (antibody, V domains shown)
VH: QVQLQESGPGLVKPSETLSLTCTVSGGSISSFYWSWIRQPAGKGLEWIGRIYTSGSTNYNPSLKSRVTMSVDTSKNQFSLKLSSVTAADTAVYYCARELEKRNYYGMDVWGQGTTVTVSS
VL: DIQMTQSPSSLSASVGDRVTITCQASHDISNYLNWYQQKPGKAPKLLIFDASTLETGVPSRFSGSGSGTYFTFTIRSLQPEDIATYYCQQYDSLPLTFGGGTKVEIK
notes: as for B1
B12: 75110_02I16A (antibody, V domains shown)
VH: QVQLQQWGAGLLKPSETLSLTCDVYGGSFSGYYWTWIRQPPGKGLEWIGEINHSGTTNSNPSLKSRVTISVDTSKSQFSLRLSSVTAADTAVYFCTRELNWFDPWGQGTLVTVSS
VL: DIQMTQSPSSVSASVGDRVTITCRASQDIANWLAWYQQKPGKAPQLLIYAASSLLGGVPSRFSGSGSGADFTLTISSLHPEDFATYYCQQANSFPYTFGQGTKLEIK
notes: as for B1
B13: 75110_02E08A (antibody, V domains shown)
VH: QVQLQESGPGLVKPSETLSLTCTVSGGSISTYYWTWIRQPAGKGLEWIGRVYTSGDTNYNPSLKSRVAMSLDTSKNQFSLKLSSVTAADTAVYYCARDSGALYSWNYGDAFDIWGQGTMVTVSS
VL: DIQMTQSPSAMSASVGDRVTITCRASQDISNYLAWFQQKPGKVPKRLIYAASSLQSGVPSRFSGSGSGTEFTLTISSLQPEDFATYYCLQHNSYPRTFGQGTKVEIK
notes: as for B1
B14: 75110_01L08A (antibody, V domains shown)
VH: QVQLQESGPGLVKPSETLSLTCTVSGGSISHYYWSWIRQPPGKGLEWIGYIHYSGTTNYNPSLKSRVTISVDTSKNQLSLKLRSVTAADTAVYYCARDQGFSSGGMDVWGQGTTVTVSS
VL: not shown
notes: as for B1
B15: 75110_02K11A (antibody, V domains shown)
VH: QVQLQESGPGLVKPSQTLSLTCTVSGGSISSGFYYWTWIRQHPGKGLEWIGYISYSGNTYYNPSFKSRLTISVDTSKSQFSLKLSSVTAADTAVYYCARDRPSNFDAFDIWGQGTMVTVSS
VL: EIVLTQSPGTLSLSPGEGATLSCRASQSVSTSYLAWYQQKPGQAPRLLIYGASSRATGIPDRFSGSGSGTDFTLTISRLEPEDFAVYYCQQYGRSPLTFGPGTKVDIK
notes: as for B1
B16: 75110_04F22A (antibody, V domains shown)
VH: EVQLVESGGGLVQPGGSLRLSCAASGFTFSSYDIHWVRQATGKGLEWVSTIGTAGDTYYPGSVKGRFTISRENAKNSLYLQMNSLRAGDTAVYYCARGGYYYYGMDVWGQGTTVTVSS
VL: EIVLTQSPGTLSLSPGERATLSCRASQSVYSSYLAWYQQKPGQAPRLLIYGASSRATGIPDRFSGSGSGTDFTLTISRLEPEDFAVYYCQQFGTSPFTFGPGTKVDIK
notes: as for B1
B17: 75110_02I18A (antibody, V domains shown)
VH: B16 VH with L4V, I34M
VL: B16 VL with Y30S, A44S, Y50H, F63V, F92Y, T94S
notes: as for B1
B18: 75110_01J17A (antibody, V domains shown)
VH: B16 VH with I34M, A40G, G55D, K75E, Y100D
VL: B16 VL with T5A, S31I, S77T, T94S, I107F
notes: as for B1
B19: 75110_05F19A (antibody, V domains shown)
VH: B16 VH with S31N, I34V, A40P, Y101D, M105L
VL: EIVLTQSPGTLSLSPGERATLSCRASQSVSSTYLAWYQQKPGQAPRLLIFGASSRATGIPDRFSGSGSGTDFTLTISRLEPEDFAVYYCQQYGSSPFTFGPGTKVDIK
notes: as for B1
B20: 75110_01N04A (antibody, V domains shown)
VH: B16 VH with S31N, I34M, Y100D, Y101F, M105L
VL: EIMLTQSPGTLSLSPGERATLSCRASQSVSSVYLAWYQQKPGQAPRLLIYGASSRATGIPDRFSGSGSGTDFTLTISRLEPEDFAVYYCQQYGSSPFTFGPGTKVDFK
notes: as for B1
B21: 75110_01K10A (antibody, V domains shown)
VH: B16 VH with G10A, S30R, S31N, I34M, Y100D
VL: B16 VL with G9D, V29L, Y30S, S32V, S66T, F92Y, T94S
notes: as for B1
B22: 75110_01E08A (antibody, V domains shown)
VH: B16 VH with S30N, S31N, I34M, G61A, S70Y, Y100D
VL: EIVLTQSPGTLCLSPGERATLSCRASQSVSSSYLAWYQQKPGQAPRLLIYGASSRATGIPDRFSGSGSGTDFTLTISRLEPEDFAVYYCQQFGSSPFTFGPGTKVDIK
notes: as for B1
B23: 75110_01G11A (antibody, V domains shown)
VH: B16 VH with I34M, K75R, Y79F, Y100D
VL: B16 VL with S14F, S28N, V29T, S54N, F92H
notes: as for B1
B24: 75110_04P06A (antibody, V domains shown)
VH: B16 VH with S31N, I34M, Y100D
VL: B16 VL with G9D, V29L, Y30S, S32V, S77N, A85V, F92Y, T94S
notes: as for B1
B25: 75110_14N19A (antibody, V domains shown)
VH: B11 VH with S31R, F32Y, Y52C, G55E, S56N, T57P, S62A, K101R, R102L
VL: DIQMTQFPSSLSASVGDRVTITCQASQDISNYLNWYQQKPGKAPKLLIYDASNLESGVPSRFSGRGSGTDFTFTISSLQPEDFATFYCQQYDTLPITFGQGTRLEIK
notes: Tested as antibody purified from AlivaMab Mouse Kappa hybridoma (human V regions, kappa light chain, mouse Fc captured by anti-mouse Fc sensors)

Molecular target: T1, Recombinant human CD4 (R&D Systems, Cat. 10327-CD) (human, UniProt P01730 26-390, limits assumed)
T1 construct: Soluble analyte in the Octet assay
Experiment: BLI Octet, mAb on anti-mouse Fc sensor, CD4 100/50/25 nM, 1:1 global fit;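 note: antibodies loaded at 10 µg/mL, an unrelated mouse-derived antibody served as internal reference control, association and dissociation phases fitted after Savitzky-Golay smoothing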

Row | Kd [nM] | Response | koff [s⁻¹] | kon [M⁻¹ s⁻¹] | Binder
1 | 13 | 0.27 | 0.0017 | 130000 | B1
2 | 5.5 | 0.22 | 0.00076 | 140000 | B2
3 | 14 | 0.36 | 0.0014 | 100000 | B3
4 | 24 | 0.13 | 0.0047 | 200000 | B4
5 | 130 | 0.12 | 0.0048 | 37000 | B5
6 | 16 | 0.23 | 0.0016 | 99000 | B6
7 | 110 | 0.1 | 0.0042 | 39000 | B7
8 | 10 | 0.05 | 0.0008 | 78000 | B8
9 | 3 | 0.23 | 0.0004 | 140000 | B9
10 | 11 | 0.25 | 0.0017 | 160000 | B10
11 | 50 | 0.16 | 0.0031 | 63000 | B11
12 | 3.5 | 0.22 | 0.0004 | 120000 | B12
13 | 2.2 | 0.11 | 0.00061 | 280000 | B13
14 | 4.1 | 0.19 | 0.0016 | 390000 | B14
15 | 19 | 0.11 | 0.0014 | 74000 | B15
16 | 5.9 | 0.05 | 0.00021 | 35000 | B16
17 | 66 | 0.05 | 8.6e-05 | 1300 | B17
18 | 2.8 | 0.09 | 0.00012 | 43000 | B18
19 | < 0.001 | 0.05 | < 1e-07 | 19000 | B19
20 | 2.1 | 0.08 | 6.1e-05 | 28000 | B20
21 | < 0.001 | 0.05 | < 1e-07 | 23000 | B21
22 | 0.26 | 0.14 | 2e-05 | 77000 | B22
23 | 1.7 | 0.11 | 7.2e-05 | 42000 | B23
24 | < 0.001 | 0.07 | < 1e-07 | 24000 | B24

Molecular target: T2, Recombinant human CD4 (R&D Systems, Cat. 10327-CD) (human, UniProt P01730 26-390, limits assumed)
T2 construct: Bought protein; also called huCD4
Experiment: BLI (Octet Red384), purified antibody on anti-mouse Fc sensors, human CD4 100/50/25 nM, global 1:1 fit;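 note: antibodies loaded at 10 µg/mL, curves fitted across association and dissociation phases, with an unrelated mouse-derived antibody serving as internal reference control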

Row | Kd [nM] | Response | koff [s⁻¹] | kon [M⁻¹ s⁻¹] | Binder
25 | 11 | 0.17 | 0.0014 | 130000 | B25

— patent US20220112288A1 (published 2022)
